# From patent US6403637B1, “Methods of modulating matrix metalloproteinase activity and uses thereof” (priority 1999, dated 2002)
# B1: Human MMP-2: human 72 kDa gelatinase (MMP-2) (protein, UniProt P08253 110-660, looked up)
# 72 kDa type IV collagenase: YNFFPRKPKWDKNQITYRIIGYTPDLDPETVDDAFARAFQVWSDVTPLRFSRIHDGEADIMINFGRWEHGDGYPFDGKDGLLAHAFAPGTGVGGDSHFDDDELWTLGEGQVVRVKYGNADGEYCKFPFLFNGKEYNSCTDTGRSDGFLWCSTTYNFEKDGKYGFCPHEALFTMGGNAEGQPCKFPFRFQGTSYDSCTTEGRTDGYRWCGTTEDYDRDKKYGFCPETAMSTVGGNSEGAPCVFPFTFLGNKYESCTSAGRSDGKMWCATTANYDDDRKWGFCPDQGYSLFLVAAHEFGHAMGLEHSQDPGALMAPIYTYTKNFRLSQDDIKGIQELYGASPDIDLGTGPTPTLGPVTPEICKQDIVFDGIAQIRGEIFFFKDRFIWRTVTPRDKPMGPLLVATFWPELPEKIDAVYEAPQEEKAVFFAGNEYWIYSASTLERGYPKPLTSLGLPPDVQRVDAAFNWSKNKKTYIFAGDKFWRYNEVKKKMDPGFPKLIADAWNAIPDNLDAVVDLQGGGHSYFFKGAYYLKLENQSLKSVKFGSIKSDWLGC
# Test system: UMR 106-01 rat osteosarcoma cells
# Assay: Binding of 125I-labeled proteinases to UMR 106-01 cells
# Conditions: 125I-labeled ligand 8 nM; means ± SEM for triplicate wells
molecule,measurement,value
B1,Specific binding,0.0 ± 0.0 fmol/2.6 × 10^5 cells
